Results: article PMC8882607 (Journal of Molecular Biology, 2022)

Assays:
Experiment in all cases: ITC
G3BP1_(NTF2) Q18A mutant = G3BP1_(NTF2) Q18A mutant (human, UniProt Q13283 1-139, Q18A)
[1] = target: G3BP1_(NTF2) F124A mutant (human, UniProt Q13283 1-139, F124A)
G3BP1_(NTF2) F33A mutant = G3BP1_(NTF2) F33A mutant (human, UniProt Q13283 1-139, F33A)
G3BP1_(NTF2) V11A mutant = G3BP1_(NTF2) V11A mutant (human, UniProt Q13283 1-139, V11A)
[2] = target: NTF2-like domain of human G3BP1 (residues 1-139) (human, UniProt Q13283 1-139)
Sequence of NTF2-like domain of human G3BP1 (residues 1-139) (Q13283 1-139): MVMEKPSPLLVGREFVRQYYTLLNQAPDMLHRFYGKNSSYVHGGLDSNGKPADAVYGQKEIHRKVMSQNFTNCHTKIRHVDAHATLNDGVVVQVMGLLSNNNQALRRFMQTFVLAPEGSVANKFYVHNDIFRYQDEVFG

Sequence of G3BP1_(NTF2) F124A mutant (Q13283 1-139 F124A): as the sequence (Q13283 1-139) above, with F124A counted along it
Sequence of G3BP1_(NTF2) V11A mutant (Q13283 1-139 V11A): as the sequence (Q13283 1-139) above, with V11A counted along it
Sequence of G3BP1_(NTF2) F33A mutant (Q13283 1-139 F33A): as the sequence (Q13283 1-139) above, with F33A counted along it
Sequence of G3BP1_(NTF2) Q18A mutant (Q13283 1-139 Q18A): as the sequence (Q13283 1-139) above, with Q18A counted along it

MSDNGPQNQRNAPRITFGGPSDSTG [SARS-CoV-2 N_(1–25) peptide (residues 1-25 of the N protein)]
dH (G3BP1_(NTF2) Q18A mutant): -15.1 kcal/mol | fold reduction of binding against wild-type G3BP1_(NTF2) [1]: ~20 fold | dH (G3BP1_(NTF2) F33A mutant): -21.3 kcal/mol | fold reduction of binding against wild-type G3BP1_(NTF2) (G3BP1_(NTF2) V11A mutant): ~10 fold

MSDNGPQNQRNAPRATFGGPSDSTG [SARS-CoV-2 N_(1–25) peptide, I15A mutant]
fold reduction of binding against wild-type N_(1–25) [2]: > 10 fold

MSDNGPQNQRNAPRITFTGPSDSTG [SARS-CoV-2 N_(1–25) peptide, G18T mutant]
fold reduction of binding affinity against wild-type N_(1–25) [2]: ~6 fold

MSDNGPQNQRNAPRIAFGGPSDSTG [SARS-CoV-2 N_(1–25) peptide, T16A mutant]
fold reduction of binding against wild-type N_(1–25) [2]: ~3 fold
